Source: US20140017790A1, “CONTROL AGENT FOR CONTROLLING UNDIFFERENTIATED STATE AND USE THEREOF” (RIKEN, priority 2011, published 2014)

Legend:
Type in all cases: cell-based
AKT = assay: Western blotting, phosphorylation of AKT in mouse iPS cells; conditions: CCL2 overexpressed, relative to negative control
Protocol: The mouse iPS cells transfected with the Ccl2 expression vector were cultured for 24 hours in the same manner as in Example 1. After the culture, the mouse iPS cells were washed with PBS, and then were suspended in 100 μl of a mammalian m-PER lysis buffer. The suspension was passed through a 26-gauge needle for 10 minutes to homogenize the cells. Then, the suspension was centrifuged at 13,000 rpm and 4° C. for 5 minutes, and the supernatant was collected. The protein concentration in the supernatant was measured using a Pierce (registered trademark) BCA Protein assay (trade name, Thermo Scientific). Next, the supernatant was subjected to Western blotting to detect a target protein. Specifically, first, the supernatant (total protein: 10 μg) was applied to a Novex Gel electrophoresis system with 4%-12% Bis-Tris gels, and was blotted on a nitrocellulose membrane. Then, the membrane was incubated with a primary antibody against the target protein. After washing the membrane, the membrane was incubated with a labeled secondary antibody labeled with horseradish peroxidase, and a color-developing reaction was caused using a coloring reagent (trade name: ECL plus, GE Healthcare). Then, luminescence on the membrane was detected using a Fuji LAS-3000 luminescent image analyzer. […]

mouse iPS cells = assay: quantitative RT-PCR of undifferentiated marker genes, recombinant CCL2 added to mouse iPS cells under feeder free conditions
Protocol: (§1) A PrimeScript RT-PCR Kit (trade name, TAKARA BIO INC.), an ABI 7500 Fast real time PCR system (trade name, Applied BioSystems), and a SYBR (registered trademark) Premix Ex Taq (trade name, TAKARA BIO INC.) were used in accordance with their protocols. PCR was carried out by conducting 40 cycles of treatment with a treatment at 94° C. for 5 second and at 62.5° C. for 20 seconds as 1 cycle. The expression level of each gene was calculated by normalizing the relative amount of mRNA in the gene to Gapdh mRNA according to the 2^−ΔΔ^CT method (Thomse R, Solvsten C A, Linnet T E, et al., Analysis of qPCR data by converting exponentially related Ct values into linearly related XO values. J Bioinform Comput Biol 2010: 8: 885-900.).
The medium of a negative control used was the above-described DMEM containing the above-described LIF. […]
Furthermore, after the culture of the mouse iPS cells, the expression level of the Tbx3 gene was determined in the same manner as in the item (1) of Example 1. Then, the fold change in expression level relative to the negative control was calculated. […]
The mouse iPS cells cultured under the feeder free conditions were cultured in the medium of the example and the medium of the comparative example, respectively. […] 24 hours after the culture, the expression levels of the undifferentiated marker genes were determined in the same manner as in the item (1) of Example 1. […]

mouse ES cells = assay: quantitative RT-PCR of undifferentiated marker genes in mouse ES cells; conditions: LIF 1000 units/ml, CCL2 500 ng/ml
Protocol: as §1
[…] Furthermore, as a negative control, the expression levels of the undifferentiated marker genes were determined in the same manner regarding the mouse ES […] Then, the fold changes in the expression level relative to the negative control were calculated.
FIG. […] The vertical axis indicates the fold change (-fold), and the horizontal axis indicates the examined undifferentiated marker genes. […] In the former case (open bar), the concentration of the LIF in the medium was 1000 units/ml and the concentration of the CCL2 in the medium was 500 ng/ml. […]

KLF4 = assay: KLF4/GAPDH ratio in human iPS cells; conditions: feeder conditions, 6 days, negative control (bFGF) = 1
Protocol: Then, the ratio of the phosphorylated AKT to the non-phosphorylated AKT (p-AKT/AKT) was determined. Assuming that the value of the p-AKT/AKT in the negative control was “1”, the relative value was calculated. Also, the ratio of the KLF4 gene expression to the GAPDH gene expression (KLF4/GAPDH) was determined. Assuming that KLF4/GAPDH in the negative control was “1”, the relative value was calculated.
Also, the ratio of KLF4 to GAPDH (KLF4/GAPDH) was determined. Assuming that KLF4/GAPDH in the negative control was “1”, the relative value was calculated. FIG. 15D is a graph showing the relative value of the ratio of KLF4 to GAPDH (KLF4/GAPDH).

B1: CCL2: mouse recombinant CCL2 (MCP-1, #479-JE-010, R&D Systems); in Examples 1, 3, 4(1), 5 mouse CCL2 (SEQ ID NO: 3) overexpressed from Ccl2 expression vector (protein, listed as Mus musculus)
chain: MQVPVMLLGLLFTVAGWSIHVLAQPDAVNAPLTCCYSFTSKMIPMSRLESYKRITSSRCPKEAVVFVTKLKREVCADPKKEWVQTYIKNLDRNQMRSEPTTLFKTASALRSSAPLNVKLTRKSEANASTTFSTTTSSTSVGVTSVTVN
phosphorylation of AKT (pAKT/AKT) (AKT): not promoted
expression level of the Tbx3 gene (mouse iPS cells; recombinant CCL2 500 ng/ml added to PI3K inhibitor 5 ng/ml + LIF 25 units/ml): further increase
expression of each undifferentiated marker gene (mouse iPS cells; recombinant CCL2 2500 ng/ml, no LIF, feeder free, 24 hours, relative to LIF 1000 units/ml): increased markedly
expression of the Klf4 gene, fold change relative to negative control (mouse ES cells): increased markedly
expression of the Tbx3 gene, fold change relative to negative control (mouse ES cells): increased markedly
KLF4 expression (KLF4/GAPDH), relative value (KLF4): about 1.7 fold
